Source: the supplement of paper PMC12764529
± gives the half width of the 95% confidence interval.

Assays:
[1] = folding stability dG unfold from trypsin proteolysis; higher = more stable
Procedure, shortened: (§1)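 Digests were run with trypsin and chymotrypsin at 11 concentrations in threefold dilutions, plus a no-protease condition, on designed mini-proteins in a PA-tagged cDNA display construct. The mini-proteins were under 80 residues, had no cysteine, and were kept only when AlphaFold2 dimer inter-PAE was above 15. After sequencing, Bayesian fitting of the counts gave K50, from which unfolding free energy was derived against a sequence-predicted unfolded-state K50 and a shared folded-state K50, per protease or combined.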

[2] = folding stability dG unfold from chymotrypsin proteolysis; higher = more stable
Procedure, shortened: as §1

[3] = folding stability dG unfold (combined trypsin and chymotrypsin); higher = more stable
Procedure, shortened: as §1

Sequence | folding stability dG unfold [1] [kcal/mol] | folding stability dG unfold [2] [kcal/mol] | folding stability dG unfold [3] [kcal/mol]
SAGGSAGGKGKLVDEPPIRDPNNGKDVWAFIMDPDGRMEVYDPNEIEEIPLKPGQIMIFTPEDLSAGGSAGG [r6_627_TrROS] | 0.757 ± 0.069 | 0.168 ± 0.34 | 0.648 ± 0.16
SAGGSAGGKISKEDLEKILEAIKEGKPITIVKVKVEKNENGEEVEKVEVIKTFTAEELKKLGIESAGGSAGG [r6_402_TrROS_Hall] | 1.73 ± 0.14 | 1.61 ± 0.073 | 1.43 ± 0.2
SAGGSAGGKITPEMEKLKKEIADAIKKAFPNKDLKIEVIKIEKTKDGSVIIDIKIGDKIIRIKASAGGSAGG [r6_494_TrMRF] | 2.58 ± 0.14 | 1.85 ± 0.12 | 2.16 ± 0.19
SAGGSAGGKKIKIEIIYDKENNKLYIYVVDENTKKVYRYEFNKNGKLIKVEPVKEVKPGEVIPLSAGGSAGG [r6_148_TrROS_Hall] | 1.96 ± 0.15 | 2.49 ± 0.16 | 2.32 ± 0.22
SAGGSAGGKKKIKPPEVTIKIKNKDGSVFEAKITKVEYDEETKKLYLEIEIEVNGKKYKLTIELSAGGSAGG [r6_962_TrROS_Hall] | 2.87 ± 0.16 | 4.49 ± 0.26 | 4.16 ± 0.76
SAGGSAGGKKKVKYYKIKEVKIEKDEDGNYTITVKVDGKTFTITIPKEKIKPGMKLKDIVIKIKSAGGSAGG [r6_255_TrROS_Hall] | 1.91 ± 0.041 | 3.57 ± 0.038 | 3.16 ± 0.11
SAGGSAGGKKKYLVKITIKYVDKKTGKLVKEETITVEVSEEELEELLKKLPPGAEITKIEIYKLSAGGSAGG [r6_776_TrROS_Hall] | 2.96 ± 0.13 | 3.58 ± 0.071 | 3.4 ± 0.071
SAGGSAGGKKLEELKEKLKKLKPKPELEVEIKIVMSKEEAEKLAKELEKLPNIKKVRVEILEPDSAGGSAGG [r6_284_TrROS_Hall] | -0.155 ± 0.069 | -0.0934 ± 0.11 | 0.0502 ± 0.17
SAGGSAGGKKNNKPKPILVKIEIINKNGKKKVFTKEFKSLEEAKKFIEKALPKGYSAKIEIIPGSAGGSAGG [r6_289_TrMRF] | 2.25 ± 0.2 | 3.36 ± 0.062 | 3.18 ± 0.29
SAGGSAGGKKPPKIKVIYIKADSPEALKKLKIKAKPGDTILIYVDGKLYRLTVIDGKIKIEELPSAGGSAGG [r6_550_TrROS_Hall] | 2.12 ± 0.089 | 3.73 ± 0.065 | 3.35 ± 0.14
SAGGSAGGKKPVYEIEITTKDGSKLTIAVKEGEEVEIKITVNGKEISLEDITSIEIRPVELPEESAGGSAGG [r6_222_TrROS_Hall] | 1.99 ± 0.16 | 1.84 ± 0.089 | 1.94 ± 0.098
SAGGSAGGKKTYRLEITIYNKDGKEIKKIEIEAETEEEALEAAKKLQEEAKKKGLKVEIKVEKVSAGGSAGG [r6_285_TrROS_Hall] | 4.2 ± 0.21 | 4.7 ± 0.068 | 4.72 ± 0.15
SAGGSAGGKKVYPIPGATPNQFRELLDENKGTLKIYMPNGKQEEFPIKPGMEPIPGGPAWIERKSAGGSAGG [r6_304_TrROS] | -0.834 ± 0.41 | -1.29 ± 0.85 | -0.871 ± 0.36
SAGGSAGGKLKINNEEIGPDKSFPLKKGKEIKVYKDYVKVFVIDPKTNKKKEYTIKLEDLKKLFSAGGSAGG [r6_940_TrMRF] | 0.437 ± 0.073 | 1.39 ± 0.2 | 1.05 ± 0.18
SAGGSAGGKPDLLLEARTDLFGEEREAEVFYDPSPPVLTITLPDGTVITLPEEEVEIEKETPLISAGGSAGG [r6_185_JUSTAS] | -0.297 ± 0.12 | -0.273 ± 0.065 | -0.243 ± 0.28
SAGGSAGGKPIWEFELEFPDGYKIRITYWPGYVRVEIHNPDGRQLEVNVPGKSPEDALDALLDASAGGSAGG [r6_459_TrROS] | 3.32 ± 0.22 | 4.19 ± 0.19 | 3.88 ± 0.24
SAGGSAGGKPKKVKIKIEITYNKETGVVKIKIEVEVDGKTYTIEIEVKLKPGQTIEELLKKLLESAGGSAGG [r6_20_TrROS_Hall] | 2.84 ± 0.24 | 4.75 ± 0.34 | 4.46 ± 0.54
SAGGSAGGKPKTYIILVIEDPENDKYLALLFDENGKLIGTAPFKSIDELLEKLPKNVKVIVLPASAGGSAGG [r6_492_TrMRF] | 3.6 ± 0.11 | 4.47 ± 0.11 | 4.24 ± 0.1
SAGGSAGGKPKVVELELTTEDGSKVRVVFTEDSVYIYNEETGLLVKYNLKTGKFELKEVYPLEESAGGSAGG [r6_462_TrROS_Hall] | 2.15 ± 0.15 | 3.24 ± 0.055 | 2.92 ± 0.28
SAGGSAGGKPTYYVAEVTYPGNLKATVVVEDKDNLTFVIPDTGEVWDLTDLDDIKITPVSADDPSAGGSAGG [r6_222_TrMRF] | 0.633 ± 0.033 | 0.95 ± 0.14 | 0.8 ± 0.073
SAGGSAGGKPVTVEVDIVVKPGDTIEFPPGAKVEIVEKKEVEVNGKKYQVFKIKVTLPPGEEALSAGGSAGG [r6_454_TrROS_Hall] | 2.31 ± 0.12 | 2.854 ± 0.026 | 2.72 ± 0.23
